The target in the assay is T1, PCSK2 (R&D Systems) (UniProt P16519 26-638, limits assumed).
T1 sequence (looked up): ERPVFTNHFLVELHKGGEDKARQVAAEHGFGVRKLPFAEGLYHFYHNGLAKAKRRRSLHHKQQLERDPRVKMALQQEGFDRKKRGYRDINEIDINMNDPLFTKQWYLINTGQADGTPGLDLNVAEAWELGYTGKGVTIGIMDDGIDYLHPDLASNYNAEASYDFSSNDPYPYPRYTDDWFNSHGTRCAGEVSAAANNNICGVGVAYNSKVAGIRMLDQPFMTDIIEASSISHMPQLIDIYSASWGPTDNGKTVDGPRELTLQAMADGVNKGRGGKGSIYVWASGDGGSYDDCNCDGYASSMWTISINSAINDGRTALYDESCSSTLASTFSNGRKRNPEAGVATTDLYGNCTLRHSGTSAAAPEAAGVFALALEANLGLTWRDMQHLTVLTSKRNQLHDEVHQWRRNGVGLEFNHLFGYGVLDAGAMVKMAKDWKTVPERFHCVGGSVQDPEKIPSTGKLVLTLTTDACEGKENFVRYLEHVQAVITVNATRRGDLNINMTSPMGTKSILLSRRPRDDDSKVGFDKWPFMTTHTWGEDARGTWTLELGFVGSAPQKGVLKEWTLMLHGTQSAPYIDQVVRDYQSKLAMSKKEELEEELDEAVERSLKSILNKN
The assay can be described thus: competition ELISA: 0.4 µg/mL 11F1 pre-incubated with the convertase in solution, then binding to plate-captured biotinylated PCSK9. In general terms: In an ELISA, binding on a coated surface is turned into a signal by an enzyme label.

B1: 11F1, anti-PCSK9 antibody (antibody, V domains shown)
VH: EVQLVESGGGLVQPGGSLRLSCAASGFTFSNYWMSWVRQAPGKGLEWVASIKQDGSEKYYVDSVKGRFAISRDNAKNSLFLQMNSLRAEDTAVYYCARDLVLMVYDIDYYYYGMDVWGQGTTVTVSS
VL: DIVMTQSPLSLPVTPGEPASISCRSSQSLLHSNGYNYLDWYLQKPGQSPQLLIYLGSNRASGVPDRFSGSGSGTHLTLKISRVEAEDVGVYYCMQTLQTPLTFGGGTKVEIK
For B1, the binding result is reported as “no binding (tested: 0 to 20 µg/mL)”.

(Values after EP4803139A2 (Amgen Inc., dated 2026).)
